The source of these data is US20160340704A1, “METHOD OF MAKING A BENZYLISOQUINOLINE ALKALOID (BIA) METABOLITE, ENZYMES THEREFORE” (VALORBEC SOCIÉTÉ EN COMMANDITE, priority 2014, published 2016).

Data set [1] concerns acetylcholinesterase. Conditions: cited from earlier work.
Data set [2] deals with (S)-scoulerine. Nature of the data set: TNMT N-methylation test: GCY1101 versus GCY1127 fed (S)-scoulerine. It counts as cell-based, Saccharomyces cerevisiae. As to the method:
When cells of the Block 2-Block 3 double integrant were incubated with (S)-scoulerine, compounds with exact masses of 342.1710 m/z and 340.1548 m/z were detected in addition to expected sanguinarine pathway intermediates. These exact masses, and their CIDs, correspond to N-methylscoulerine and N-methylcheilanthifoline, respectively^36. […] To determine whether TNMT was responsible for the N-methylation of cheilanthifoline and scoulerine, the Block 2 integrant strain harbouring CPR on a plasmid (strain GCY1101) was compared with the Block 2 integrant strain harbouring both CPR and TNMT on a plasmid (strain GCY1127).
Because the applicants lacked standards to quantify the N-methylated products and since the three compounds are similar in structure, they assumed equal ionization efficiency and estimated their relative proportions by peak area: when strain GCY1127 is fed (S)-scoulerine, the expected product N-methylstylopine is 33%, while N-methylscoulerine is 7% and N-methylcheilanthifoline is 60% (FIG. 8B).

Data set [3] can be described thus: Microsomal cytochrome P450 enzyme assay of PsCFS and PsSPSΔN incubated with (S)-scoulerine. It counts as biochemical, Papaver somniferum. Conditions: microsomes with PsCPR; 125 μM (S)-scoulerine, 500 μM NADPH. As to the method: The pESC-CPR vector encoding opium poppy cytochrome P450 reductase (PsCPR) fused to a c-Myc tag was used for the heterologous expression of plant proteins in S. cerevisiae^25. The amplicon was inserted into NotI and SpeI restriction sites of pESC-CPR in-frame with a FLAG-tag sequence yielding pESC-CPR/CFS. […]
Analysis of enzyme assays was performed using an Agilent™ 1200 liquid chromatography system equipped with a 6410 triple-quadrupole mass spectrometer (Agilent Technologies; Santa Clara, Calif.). […] Scoulerine, cheilanthifoline, and stylopine were detected in multiple reaction monitoring (MRM) mode using a collision energy of 25 eV and monitored transitions of m/z 328→178, 326→178 and 324→176, respectively.
Constructs for the heterologous expression of PsCFS and PsSPS in S. cerevisiae were assembled in a vector harbouring PsCPR (Table 1 above). […] No conversion of scoulerine was detected in the negative control. […]

Data set [4] deals with scoulerine. Nature of the data set: CYP719s in GC1316 (integrated PsCPR and PsCFS) supplemented with scoulerine. It counts as cell-based, Saccharomyces cerevisiae. The text has this: (§1) Plasmids harboring CYP719s were transformed into either GC1333 containing an integrated PsCPR (FIG. 10A) or GC1316 containing an integrated PsCPR and an integrated PsCFS (FIG. 10B). Strain GC1333, harboring PsCPR integrated into the chromosome, was transformed with pBOT plasmids, with GFP removed, harboring individual CYP719s (CYP719 EX41-105). (See Tables 7-8 below presenting the nature and activity of these CYP719s).
Plasmids harboring individual CYP719s were transformed into strain GC1316, which harbored PsCPR and PsCFS integrated into the genome. Strains were supplemented with scoulerine and after 16 hours total BIAs were extracted and the molar ratio was compared (FIG. 10B). The four possible BIAs that could be extracted were scoulerine, the single Ring A product nandinine, the single Ring B product cheilanthifoline, and the double Ring A, Ring B product stylopine.

The subject of data set [5] is nandinine. As to the kind of experiment: CYP719 Ring B closure of nandinine to stylopine in GC1333. It counts as cell-based, Saccharomyces cerevisiae. Conditions: nandinine generated in vivo from scoulerine, in TE. As to the method: FIG. 11A-B: showing conversion of (S)-cheilanthifoline (FIG. 11A) or (S)-nandinine (FIG. 11B) to (S)-stylopine by purchased CYP719s. Plasmids harboring CYP719s were transformed into GC1333 containing an integrated PsCPR. Strains were incubated with the appropriate BIA overnight, and then total BIAs were extracted and total molar ratios were compared. PsSPSΔN was used as a control.
The 10 CYP719s with 95% activity on Ring A of scoulerine and the 10 CYP719s with activity on Ring B of scoulerine were tested for activity on cheilanthifoline and nandinine, respectively, in order to generate a branched stylopine synthesis pathway. […] CYP719s PsCFS and EX101, capable of converting >98% of scoulerine to cheilanthifoline and nandinine, respectively, were incubated with scoulerine. After 16 h, cells were pelleted and the supernatant fraction was collected. The supernatant was then applied to fresh yeast strains in order to supplement them with either TE containing nandinine or cheilanthifoline as necessary.

Data set [6] has as its system scoulerine. Nature of the data set: CYP719 substrate affinity test on scoulerine in GC1333 (integrated PsCPR): Ring A / Ring B closure. The data set is classed as cell-based, Saccharomyces cerevisiae. Conditions: single CYP719 with PsCPR, 16 hours. As to the method:
To broadly identify CYP719 activities on BIAs, a substrate affinity test was performed with the protoberberine BIA scoulerine. CYP719s have been described to form methylenedioxy bridges on BIAs from an alcohol group and a methyl group on adjacent carbons. Two different rings can be made on scoulerine, which can be called “Ring A” and “Ring B”, with the BIA products being called “nandinine” and “cheilanthifoline”, respectively (see FIG. 19). CYP719-catalyzed formation of both Ring A and Ring B of scoulerine (“Ring A-closing activity” and “Ring B-closing activity”) has been identified and published. Certain CYP719 enzymes included in the affinity tests have published ring A and Ring B activities.
as §1
The resulting CYP719-harboring strains (strains SF41-105) were supplemented with scoulerine. After 16 hours, BIAs were extracted and the molar ratio of scoulerine to downstream BIAs was calculated (FIG. 10A).

Regarding `COc1cc2c(cc1O)[C@@H]1Cc3ccc(OC)c(O)c3C[N@+]1(C)CC2` [N-methylscoulerine], the described activity result in data set [1] is listed as “acetylcholinesterase inhibitor”.

B1: TNMT: Papaver somniferum tetrahydroprotoberberine cis-N-methyltransferase, SEQ ID NO: 58 (protein, listed as Papaver somniferum)
chain: MGSIDEVKKESAGETLGRLLKGEIKDEELKKLIKFQFEKRLQWGYKSSHQEQLSFNLDFIKSLKKMEMSGEIETMNKETYELPSEFLEAVFGKTVKQSMCYFTHESATIDEAEEAAHELYCERAQIKDGQTVLDIGCGQGGLVLYIAQKYKNCHVTGLTNSKAQVNYLLKQAEKLGLTNVDAILADVTQYESDKTYDRLLMIEAIEHMKNLQLFMKKLSTWMTKESLLFVDHVCHKTFAHFFEAVDEDDWYSGFIFPPGCATILAANSLLYFQDDVSVVDHWVVNGMHMARSVDIWRKALDKNMEAAKEILLPGLGGSHETVNGVVTHIRTFCMGGYEQFSMNNGDEWMVAQLLFKKK
For B1, the “substrate acceptance for N-methylation” value in data set [2] was “accepts both scoulerine and cheilanthifoline as substrates”.

B2: EX84: Papaver somniferum cheilanthifoline synthase, ADB89213.1, SEQ ID NO: 363 (protein, listed as Papaver somniferum)
chain: MEVTFWLITCGVVVAFALAKLLFGKKSSMSTMEWPSGPKTLPIIGNLHQLGGEAFHVCLANLAKVYGGVFTIWVGSWRPFIVISDVDKAWEVLVNKSSDYSARDMPDITKIISANWKNISHGDSGPFWHNLRKGLQGVALTPFNVASQYHLQERDMQNLIKSMKKKASQKNGILKPLDYVKEETVRLLSRLIFSQEFVDEDFVVGMHQALDELVSISGYASLADAFKFCENLPSHKKTIRAVHAIKIRFDNLIRPHIVSNPPTNTYLHFLLSQDFSEDVIISAILEVYDLGVDSTASTTVWALTFLVREQKIQEKLYREINNVTGGKRPVKVEDLNKLPYLQAVMKETMRMKPIAPMAIPHKASKDTSLMGKKINKGTVVMVNLYAIHHNPAVFPEPYKFMPERFLKDANSDGSLGDIKKMESSLLAFSAGMRICAGMELGKLQLAFGLASLVNEFKWDCVAEGKLPDLSEEHCFILLMKNPLEAKITPRIH
For the molecule B2, in data set [3], the “conversion of (S)-scoulerine by microsomal proteins (LC-MS products)” value is “converted to cheilanthifoline”. Also, the “conversion of scoulerine to cheilanthifoline” value in data set [4] (PsCFS alone in GC1316) worked out at 100%. Besides, the activity on nandinine result in data set [4] (inferred from residual nandinine in GC1316 strains) is “little to no activity on nandinine”. Besides, in data set [5], the “conversion of nandinine to stylopine” value is given as 12%.

B3: EX46: CYP719 from Corydalis cheilanthifolia, SEQ ID NO: 325 (protein, listed as Corydalis cheilanthifolia)
chain: MVNAVAEILTEKPWLLPATLLAVIAIAKFFLGKSSTMKWPIGPKTLPIIGNMHQLGGTDLQVVLANLAKTYGTIMTIWVGSWRPMIVLSDIEKAWEVLVNKSSDYSGRAMPEITEIISAKGKTISTSDSGPHWSNLRKGLQNVALSPHNIAAQSRFQESDITKMIKTLKQEAASNNGIVQPLDHLKKSTVRLISRLIFGQDFDDDEYVEAMHLAVEELIRVSGYARLAEAFYYAKYLPSHKRAVSEVWEANRRVKRIVKPRLSANPPPNCYLHFLSSQDYSEEMIIFAIFEAYLLGVDSTSSTTAWALGFLIREPKVQERLYQELKNCAGENGLIKVEDINKLPYLQAVLKETMRMKPIAPLAIPHKAVRETSLAGNKVEPGTRVMVNLYAIHHNPKVWIDPHKFKPERFLQGEENGGGNLKLMEQSLLPFSAGMRTCAGMELGKLQFGFSLANLVNAFQWDCAKKGMFPDMSDLLGFVLLMKTPLQAKIVPRGSPSINGY
In the case of B3, the “conversion of scoulerine to the Ring A product nandinine (Ring A closure)” value in data set [6] turned out to be 66%.

B4: EX61: CYP719 from Eschscholzia californica, Q50LH3.1, SEQ ID NO: 340 (protein, listed as Eschscholzia californica)
chain: MEEMKILMMNNPWILTATATTLLISIFLFFTRKSSKMVWPAGPKTLPIIGNMHLLGGTALQVVLHNLAKVHGSVMTIWIGSWRPVIVVSDIERAWEVLVNKSSDYSARDMPDITKIISADWKTISTSDSGPHWTNLRKGLQNVALSPHNLAAQFQFQEKDMTKMIQTLQEEARNNNGIVKPLDHMKKATLRLISRLVFGQDFNNDKYVDDMHLAIEELIRVSGYARLAEAFYYAKYLPSHKKAVREVEEAQRRVQNLVSPFLSLNPPTNTYLHFLRSQKYDDEVIIFAIFEAYLLGVDSTSLTTAWALAFLIRESNVQEKLYQELESFASKMDRKILKVEDINKLQYLQAVIKETMRMKPIAPLAIPHKACRDTSLMGKKIDKGTRVMVNIYALHHNKNVFNDPFKFMPERFMKVDSQDANGKAMEQSLLPFSAGMRICAGMELGKLQFSFALANLAYAFKWSCVADGVLPDMSDQLGFVLLMKTPLEARINRRN
For B4, the “conversion of scoulerine to the Ring A product nandinine (Ring A closure)” value in data set [6] turned out to be 90%.

B5: EX94: N-truncated Papaver somniferum stylopine synthase (CYP719A20) with lettuce germacrene A oxidase N-terminal domain, SEQ ID NO: 373 (protein, listed as Papaver somniferum)
chain: MELSITTSIALATIVFFLYKLATRPKSTKKQLPEASRLPIIGHKRKKSSTMVWPTGPKTLPIIGNMHVLGGTALQVVLHNLAKIHGNVMTIWIGSWRPVIVVSDIDRAWEVLVNKSSDYSARDMPEITKIISADWKTISTSDSGPGWSNLRKGLQNVALSPHNLAAQSQFQEKDITKMIQSLKKEAASNNGIVKPIDHLKKATLRLISRLIFGQDFDDDKYVDDMHHAIEELIRVSGYAQLAEAFYYAKYLPSHKKAVRDVEEANQRVKKLVRPFLSLNPPTNTYLHFLNSQKYDEEVIIFAIFEAYLLGVDSTSLTTAWALAFLIREPVVQDKLYQELKNLTAKNDCEIVKVEDLNKLQYLQAVLKETMRMKPIAPLAIPHKACRDTSLKGNKIDQGTQVMVNIYALHHNEKVWKEPFKFMPERFLQTQDVVNGKGMEQSLLPFSAGMRICAGMELGKLQFSFSLANLVNAFEWSCVSDGVLPDMSDQLGFVLLMKTPLQARIVPRV
With B5, the “conversion of (S)-scoulerine by microsomal proteins (LC-MS products)” value in data set [3] was “converted to cheilanthifoline and stylopine”.
